Results: US20250026813A1 (published 2025)
Substitutions are numbered along the chain they refer to.

B1: YANG-1110 (antibody, V domains shown)
VH: QVQLAESGGGVVQPGRSLRLSCVVSGFTFSNYGMHWVRQAPGKGLEWVVFISNDGSNEDFVDSVKGRFTISRDNSKNTLYLQMNSLRAEDTAVYYCAKGGYFYGSGNYYYYYGMDVWGQGTTVTVSS
VL: QPVLTQSSSASASLGSSVKLTCTLSSVHSNHIIAWHQQQPGKAPRYLMKLEGSGRYSKGSGVPDRFSGSSSEADRYLTISNLQSEDEADYYCETWDNNTYVFGSGTKVTVL
B2: YANG-1103 (antibody, V domains shown)
VH: EVQMVESGGGLIQPGGSLRLSCAASGLTVSSNYMSWVRQAPGKGLEWVSVIYSGGSTFYADSVKDRFTISRDNSKNTLYLQMNSLRAEDTAVYYCARENWNYVFDCWGQGTLVTVSS
VL: DIQLTQSPSFLSASVGDRVTITCWASQGISSYLAWYQQKPGKAPKLLIYAASTLQSGVPSRFSGSGSGTEFTLTISSLQPEDFATYYCQQLNSHPIIFGQGTRLEIK
B3: YANG-1109 (antibody, V domains shown)
VH: EVQLVESGGGLIQPGGSLRLSCGVSGLTVSRNYMNWVRQAPGKGLEWVSVIYSGGSTFYADSVKGRFTISRDNSKNTLYLQMISLRAEDSGVYYCAREGFGMDVWGQGTTVTVSS
VL: B2 VL with S31N, A50S, S77N, E81A, F83I, Q90L, I96C, I97S, R103K
B4: YANG-1105 (antibody, V domains shown)
VH: B3 VH with L4V, G23A, V24A, L27I, I83N, E88D, S90T, F100Y
VL: B2 VL with A50S, S76N, I96C, I97S, R103K
B5: YANG-1107 (antibody, V domains shown)
VH: B2 VH with P14S, T28S, S49A, T57I
VL: B2 VL with S31T, N92S
B6: YANG-1112 (antibody, V domains shown)
VH: QITLKESGPTLVKPTQTLTLTCTFSGFSLSTGGVAVGWIRQPPGKALEWLAIIYWDDDKRYSPSLKSRLTITKDTSKNQVVLTMTNMDPVDTATYYCAHWGKDSFDIWGQGTMVTVSS
VL: SYELTQPPSVSVSPGQTARITCSGDALPRKYAYWYQQKSGQAPVLVIYEDNNRPSGIPERFSGSSSGTTATLTVSGAQVEDEADYYCYSTDTSGYVVFGGGTKLTVL
B7: YANG-1102 (antibody, V domains shown)
VH: QVQLQESGPGLVKPSGTLSLTCAVSGGSISTTNWWSWVRQSPGRGLEWIGEIFHIGYTNYNPSLKSRVTISVDKSKNQFSLKLNSVTVADTAVYYCARRVVMDTAMAHFDCWGQGTLVTVSS
VL: QSVLTQPPSVSGAPGQRVTISCTGSSSNIGAGYDVHWYQHLPGTAPKLLIYININRPSGVPDRFSGSKSGTSASLVIAGLQAEDGADYYCQSYDSSLSGWVFGGGTRLTVL
B8: YANG-1101 (antibody, V domains shown)
VH: QLQLQESGPGLVKPSETLSLTCTVSGGSISSSSYYWGWIRQPPGKGLEWIGSIYYSGSIYYNPSLKSRVTISVDTSKNQFSLKLSSVTAADTAVYYCASWFGEFLKADAFDIWGQGTMVTVSS
VL: QSALTQPASVSGSPGQSITISCTGTSSDVGGYSYVSWYQQHPGKAPKLMIYDVSKRPSGVSNRFSGSKSGNTASLTISGLQAEDEADYYCCSYAGGSTFVVFGGGTKLTVL
B9: YANG-1111 (antibody, V domains shown)
VH: EVQLVESGGGLIQPGGSLRLSCAASGFTFSSYSINWVRQAPGKGLEWVSFISGSSTTIYYADSVKGRFTISRDSAKNSLYLQMNSLRDEDTAVYYCARGLRSSIAPRPDYFDSWGQGILVTVSS
VL: SYVLTQPPSVSVAPGKTARITCGGNNIGSKGVHWYQQKPGQAPVLVIYYDSDRPSGIPERFSGSNSGNTATLTISRVEAGDEADYSCQVWDSSSDHPVFGGGTKLTVQ
B10: YANG-1108 (antibody, V domains shown)
VH: QVQLVESGGGVVHPGRSLRLSCVVSGFTFSGYGMYWVRQAPGKGLEWVAVISKDGSDKYYADSVKGRFTISRDNSKNTLNLQMNSLRAEDTAVFYCAKERTFQGSGSYYNNYFYYGMDVWGQGTTVTVSS
VL: AIQLTQSPSSLSASVGDRVTITCRASQGISSALAWYQQKPGKAPNLLIYDASSLESGVPSRFSGSGFGTDFTLTINSLQPEDFASYYCQQFKSYPLTFGGGTKVEIK
B11: YANG-1106 (antibody, V domains shown)
VH: EVQLVESGGGLIQPGGSLRLSCAASEFIVSRNYMSWVRQAPGKGLEWVSVIYSGGSTFYADSVRGRFTISRDNSKNTLYLQMNSLRAEDTAVYYCARDYGDQYFDYWGQGTLVTVSS
VL: EMVMTQSPATLSVSPGEKATLSCRASQTVSTNLAWYQQKPGQSPRLLIYGASTRATGIPARFSGSGSGTEFTLTISSLQSEDFAIYYCQQYVDWPRTFGQGTTVEIK
B12: YANG-2111 (antibody, V domains shown)
VH: GVQLVESGGGLVQPGRSLRLSCAASGFTFDDYALHWVRQVPGKGLEWVSSISWNSDDLGYADSVEGRFTISRDNAKNSLYLQMSSLRTEDTALYYCVKDTRAHYDILAGYRGLDSWGQGTLVTVSS
VL: DIVMTQSPLSLPVTPGEPASISCRSTQSLLHSNGYNFLDWYLQKPGQSPQLLIYLGSNRASGVPDRFSGSGSGTDFSLKISRVEAEDIGIYYCIQGLQTPITFGQGTRLEIK
B13: YANG-2110 (antibody, V domains shown)
VH: EVQLVESGGGLIQPGGSLRLSCAASGFIVSRNYMSWVRQAPGKGLDWVSVIYSGGSTYYADSVKGRFTISRDNSKNTLYLQMNSLRAEDTAVYYCARSIAVAGEGLDSWGQGTLVTVSS
VL: EIVMTQSPATLSLSPGDRATLSCRASQSVSNIFISWYQQKPGQAPRLLIYGASIRATDIPARFSGSGSGTDFTLTISSLQPEDFAIYFCQQDYNLPLTFGGGTKVEIK
B14: YANG-2202 (antibody, V domains shown)
VH: EVQLVESGGGLVQPGGSLRLSCAASGFTFSSFAMSWVRQAPGKGLEWVAAFSGRGAITHYTDSVKGRFTISRDNSKNTLYLQMNSLRAEDTAVYYCATYNWNPYYFDFWGQGTLVTVSS
VL: DIQMTQSPSSVSASIGDRVTITCRASQDINIWLAWYQQKPGKAPNLLIFDTSNLQSGVPSRFSGSGSGSDFTLTISSLQPEDFATYYCQQGNSFPRTFGQGTRLEIK
B15: YANG-2203 (antibody, V domains shown)
VH: QVQLVQSGAEVKQPGASVKVSCRASGYALTSFYVHWVRQAPGQGLEWMGIIKPSGGDTIYAQNLQGRVTMTRDTSTNTFYVELSSLRSEDTALYYCAISGNTRAFEIWGQGTMVTVSL
VL: QSVLTQPPSVSAAPGQKVTISCSGSSSNIGNNFVSWYQQLPGMVPKLLIYANNKRPSGIPDRFSGSRSGTSATLGITGLQTGDEADYYCGTWDSSRSAVLFGGGTKMTVL
B16: YANG-2204 (antibody, V domains shown)
VH: QMQLVQSGAEVKKPGASVKFSCKTSGYTFTNYYMVWVRQAPGQGLEWMGIIKPSGGNTIYAQKFQGRVTMTRDTSTNTVYMDLTSLRSEDTAVYYCARTGDRAFDVWGQGTMVTVSS
VL: B15 VL with F33Y, M43T, V44A, A51D, R67K, R96L, S97G, V99G, L100V, M107L
B17: YANG-2201 (antibody, V domains shown)
VH: QEQLVESGGGVVQPGMSLRLSCAASGFTFSNYGMHWVRQSPGKGLEWVTFISYDGNNEYYVDSVKGRFTISRDNSKNTLFLQMNSLRAEDAAVYYCAKDRALNLYYFDSWGPGTLVTVSS
VL: DIVMTQPPLSLPVTPGEPASISCRSSQSLLHNNAYNHLNWYLQKPGQSPQFLIYLGSNRASGVPDRFSGSGSGTDFTLKISRVEAEDVGVYYCMQSLQIPITFGQGTRLEIK
B18: YANG-2109 (antibody, V domains shown)
VH: QVQLVQSGAEVKKPGSSVKVSCKASGGTFSGYTISWIRQAPGQGLEWMGGIIPSFGSLNYGQKFQDRVSITTDELKSTVYMELSSLNSEDTAIYYCTRESITSGYYYGMAVWGQGTTVTVSS
VL: DIQMTQSPSSLSASVGDRVTITCRASQGIRDDLGWFQQKPGKAPKRLISAASSLQSGVPSRFSGSGSGTEFTLTISSLQPEDFATYYCLQHNSYPLTFGGGTKVEIR
B19: YANG-2108 (antibody, V domains shown)
VH: QVQLQESGPGQVKPSGTLSLTCAVSGGSIRSSNWWIWVRQPPGKGLEWIGEIYHGGNTNYSPSLKSRVSISVDKSKNHFSLNLTSVTAADTAVYYCARALYDVGGVFDIWGQGTMVTVSS
VL: QSALTQPASVSGSPGQSITISCTGSSSDVGGYNYVSWYQQHPGKAPKLMIYDVSERPSGVSNRFSGSKSGNTASLTISGLQAEDEGDYYCCSYAANSNVVFGGGTKLSVL
B20: YANG-2112 (antibody, V domains shown)
VH: QVQLVQSGAEVKKPGASVKVSCKVSGFTLTHLSIHWVRQAPGRGLEWMGGFDPVDGQTVYAQNFQGRVTMTEDTSTDTANMDLNNLKSEDTAVYYCATGVVVPAAPYYYSSGMDVWGQGTTVTVSS
VL: QSVLTQPPSTSGTPGQRVTISCSGSSSNIAKNYVYWYQQLPGTAPKLLIYRTNQRPSGVPDRFSGSRSGTSASLAISGLRSEDEATYYCATWDDTLSVIFGGGTNLTVL

target: SARS-CoV-2 spike protein bearing furin mutation and truncation in retention sequence, on pseudoviral particles (SARS-CoV-2, UniProt P0DTC2 14-1255); assay: cell-based or functional assay

Going from B1 to B2, the “PV neutralization % (Ab 1 ug/mL)” value rises from 99.3% to 100%.

Compared with B3, B4 is lower in “PV neutralization % (Ab 1 ug/mL)” value: 99.4% for the first, 97.2% for the second.

First: B5
Second: B6
The “PV neutralization % (Ab 1 ug/mL)” value of the first is higher: 99.2% for the first, 89.2% for the second.

First: B7
Second: B8
The “PV neutralization % (Ab 1 ug/mL)” value of the first is lower: 86.9% for the first, 98% for the second.

First: B9
Second: B10
The “PV neutralization % (Ab 1 ug/mL)” value of the first is lower: 72.7% for the first, 95.2% for the second.

B11 was tested, and the “PV neutralization % (Ab 1 ug/mL)” value was 99.5%.

First: B2
Second: B3
The “PV neutralisation IC50” value of the first is 6.5-fold lower: 0.28 nM for the first, 1.81 nM for the second.

First: B6
Second: B7
The “PV neutralisation IC50” value of the first is 1.6-fold lower: 0.52 nM for the first, 0.84 nM for the second.

With B9 the “PV neutralisation IC50” value was 1.82 nM.

target: SARS-CoV-2 spike protein bearing furin mutation and truncation in retention sequence (on pseudoviral envelope) (SARS-CoV-2, UniProt P0DTC2 14-1273); assay: cell-based or functional assay

Compared with B12, B15 is 4.1-fold higher in “PV neutralisation IC50” value: 1.33 nM for the first, 5.45 nM for the second.

Going from B16 to B18, the “PV neutralisation IC50” value falls from 3.3 nM to 0.5 nM (6.6-fold).

Going from B19 to B20, the “PV neutralisation IC50” value rises from 0.27 nM to 0.65 nM (2.4-fold).

Going from B12 to B13, the “PV neutralization % (Ab 1 ug/mL)” value rises from 86.8% to 99.9%.

First: B14
Second: B15
The “PV neutralization % (Ab 1 ug/mL)” value of the first is higher: 37.5% for the first, 35.7% for the second.

Compared with B16, B17 is lower in “PV neutralization % (Ab 1 ug/mL)” value: 41% for the first, 35.2% for the second.

First: B18
Second: B19
The “PV neutralization % (Ab 1 ug/mL)” value of the first is higher: 95% for the first, 81.8% for the second.

With B20 the “PV neutralization % (Ab 1 ug/mL)” value was 88.6%.
